# Literature values as cited in PMC3726369.
# Read-outs that look alike come from different tables or passages of the source.
# Tests used:
# [1] = biological target: LH receptor (Rattus norvegicus) (UniProt P16235)
# [2] = biological target: LH receptor (Homo sapiens) (UniProt P22888)
# [3] = biological target: LH receptor (Homo sapiens) (UniProt P22888); remark: listed apart in the source
# Chain of UniProt P22888 (P22888 27-699): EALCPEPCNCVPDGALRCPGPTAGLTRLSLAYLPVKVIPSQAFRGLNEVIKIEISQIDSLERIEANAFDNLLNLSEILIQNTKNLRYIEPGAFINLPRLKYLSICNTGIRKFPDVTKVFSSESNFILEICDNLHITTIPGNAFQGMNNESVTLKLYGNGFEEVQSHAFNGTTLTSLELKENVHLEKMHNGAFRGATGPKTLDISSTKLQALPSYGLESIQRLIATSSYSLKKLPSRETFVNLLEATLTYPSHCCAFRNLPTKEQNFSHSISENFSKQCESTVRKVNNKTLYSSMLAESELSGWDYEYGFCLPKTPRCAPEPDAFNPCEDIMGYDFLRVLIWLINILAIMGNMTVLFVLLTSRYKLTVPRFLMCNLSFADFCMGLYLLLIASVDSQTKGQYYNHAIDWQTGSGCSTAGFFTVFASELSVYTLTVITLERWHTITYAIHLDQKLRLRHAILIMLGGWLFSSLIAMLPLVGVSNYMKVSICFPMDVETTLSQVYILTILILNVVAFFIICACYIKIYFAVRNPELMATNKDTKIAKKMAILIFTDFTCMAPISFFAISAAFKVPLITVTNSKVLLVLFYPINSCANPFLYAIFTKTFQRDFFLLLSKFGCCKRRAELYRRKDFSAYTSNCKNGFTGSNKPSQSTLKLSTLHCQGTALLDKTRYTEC
# Chain of UniProt P16235 (P16235 27-700): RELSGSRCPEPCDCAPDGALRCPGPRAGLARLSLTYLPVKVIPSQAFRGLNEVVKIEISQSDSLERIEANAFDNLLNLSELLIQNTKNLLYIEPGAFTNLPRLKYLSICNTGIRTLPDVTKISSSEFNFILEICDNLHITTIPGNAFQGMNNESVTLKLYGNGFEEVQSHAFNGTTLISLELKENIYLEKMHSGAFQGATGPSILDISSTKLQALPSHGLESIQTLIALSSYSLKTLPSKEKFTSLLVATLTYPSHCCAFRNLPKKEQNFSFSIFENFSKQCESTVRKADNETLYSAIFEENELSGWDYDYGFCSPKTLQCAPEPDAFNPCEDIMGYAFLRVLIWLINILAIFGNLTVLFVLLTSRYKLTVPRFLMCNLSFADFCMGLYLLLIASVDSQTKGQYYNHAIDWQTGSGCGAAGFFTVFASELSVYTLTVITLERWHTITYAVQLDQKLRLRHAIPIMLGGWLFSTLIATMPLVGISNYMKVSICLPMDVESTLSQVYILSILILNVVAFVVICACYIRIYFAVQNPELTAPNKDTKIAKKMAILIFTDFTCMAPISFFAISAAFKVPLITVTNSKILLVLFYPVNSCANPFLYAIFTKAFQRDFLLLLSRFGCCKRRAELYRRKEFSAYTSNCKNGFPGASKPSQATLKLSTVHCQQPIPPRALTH
Kd [1] [nM],Kd [2] [nM],Kd [3] [nM],Substance
0.09,9,,LH (from UniProt P01215)
,,4,hCG (from UniProt P01215)
